This note sets out measurements from the supplement of paper PMC11246515.

± gives the standard deviation of the averaged measurements.

This data set in a line: total protein half-life in vivo (active degradation + dilution); higher = more stable protein.
Setting [1] is: E. coli NCM3722 delta-clpP, growth: N-lim chemostat, doubling time 6 h.
Where [2] appears, read: E. coli NCM3722 delta-hslV, growth: N-lim chemostat, doubling time 6 h.
Where [3] appears, read: E. coli NCM3722 delta-smpB, growth: N-lim chemostat, doubling time 6 h.
Where [4] appears, read: wild type E. coli NCM3722, growth: C-lim chemostat, doubling time 6 h.
[5] abbreviates: wild type E. coli NCM3722, growth: C-lim chemostat, doubling time 12 h.
[6] abbreviates: wild type E. coli NCM3722, growth: N-lim chemostat, doubling time 6 h.
Where [7] appears, read: wild type E. coli NCM3722, growth: P-lim chemostat, doubling time 6 h.
The mark [8] stands for this setting: E. coli NCM3722 delta-clpP delta-lon delta-hslV, growth: N-lim chemostat, doubling time 6 h.
Where [9] appears, read: E. coli NCM3722 delta-lon, growth: N-lim chemostat, doubling time 6 h.
The mark [10] stands for this setting: wild type E. coli NCM3722, growth: C-lim chemostat, doubling time 3 h.
Setting [11] is: wild type E. coli NCM3722, growth: N-lim chemostat, doubling time 12 h.
[12] abbreviates: wild type E. coli NCM3722, growth: P-lim chemostat, doubling time 12 h.

“MSWQQFKHAWLIKFWAPIPAVIAAGILSTYYFGITGTFWAVTGEFTRWGGQLLQLFGVHAEEWGYFKIIHLEGSPLTRIDGMMILGMFGGCFAAALWANNVKLRMPRSRIRIMQAIIGGIIAGFGARLAMGCNLAAFFTGIPQFSLHAWFFAIATAIGSWFGARFTLLPIFRIPVKMQKVSAASPLTQKPDQARRRFRLGMLVFFGMLGWALLTAMNQPKLGLAMLFGVGFGLLIERAQICFTSAFRDMWITGRTHMAKAIIIGMAVSAIGIFSYVQLGVEPKIMWAGPNAVIGGLLFGFGIVLAGGCETGWMYRAVEGQVHYWWVGLGNVIGSTILAYYWDDFAPALATDWDKINLLKTFGPMGGLLVTYLLLFAALMLIIGWEKRFFRRAAPQTAKEIA”: the “total protein half-life in vivo” value was found to be 1.86 h under setting [1]; 2.16 h under setting [2]; 3.67 h under setting [3]; 4.44 ± 0.089 h under setting [4]; 6.8 ± 1.4 h under setting [5]; 3.69 h under setting [6]. Moreover, the “total protein half-life in vivo” value under setting [7] was 2.95 h.
As for “MNPLKAGDIAPKFSLPDQDGEQVNLTDFQGQRVLVYFYPKAMTPGCTVQACGLRDNMDELKKAGVDVLGISTDKPEKLSRFAEKELLNFTLLSDEDHQVCEQFGVWGEKSFMGKTYDGIHRISFLIDADGKIEHVFDDFKTSNHHDVVLNWLKEHA [P0AE52]”, the “total protein half-life in vivo” value under setting [8] amounted to 5.42 ± 0.21 h; the “total protein half-life in vivo” value under setting [1] amounted to 5.26 ± 0.76 h; the “total protein half-life in vivo” value under setting [2] is 4.92 ± 0.074 h; the “total protein half-life in vivo” value under setting [9] was 6.45 ± 1.5 h; the “total protein half-life in vivo” value under setting [3] stood at 4.25 ± 0.079 h; the “total protein half-life in vivo” value under setting [10] was found to be 2.85 ± 0.64 h. For the same sequence, the “total protein half-life in vivo” value came to 5.36 ± 0.065 h under setting [4]; 7.64 ± 0.72 h under setting [5]; 4.08 ± 0.36 h under setting [6]; 7.49 ± 0.41 h under setting [11]; 4.38 ± 0.081 h under setting [7]; 11 ± 0.55 h under setting [12].
With “MGFKCGIVGLPNVGKSTLFNALTKAGIEAANFPFCTIEPNTGVVPMPDPRLDQLAEIVKPQRTLPTTMEFVDIAGLVKGASKGEGLGNQFLTNIRETEAIGHVVRCFENDNIIHVSGKVNPADDIEVINTELALADLDTCERAIHRVQKKAKGGDKDAKAELAVLEKCLPQLENAGMLRALDLSAEEKAAIRYLSFLTLKPTMYIANVNEDGFENNPYLDQVREIAAKEGSVVVPVCAAVEADIAELDDEERDEFMQELGLEEPGLNRVIRAGYKLLNLQTYFTAGVKEVRAWTIPVGATAPQAAGKIHTDFEKGFIRAQTISFEDFITYKGEQGAKEAGKMRAEGKDYIVKDGDVMNFLFNV [P0ABU2]”, the “total protein half-life in vivo” value is, setting by setting: under setting [8], 3.92 ± 0.14 h; under setting [1], 3.74 ± 0.63 h; under setting [2], 3.66 ± 0.24 h; under setting [9], 4.72 ± 0.67 h; under setting [3], 3.69 ± 0.13 h; under setting [10], 3.61 ± 0.17 h. For the same sequence, the “total protein half-life in vivo” value was found to be 4.77 ± 0.28 h under setting [4]; 9.13 ± 0.49 h under setting [5]; 3.5 ± 0.18 h under setting [6]; 5.15 ± 0.31 h under setting [11]; 5.12 ± 0.4 h under setting [7]; 9.68 ± 0.37 h under setting [12].
On to “MSKVKSITRESWILSTFPEWGSWLNEEIEQEQVAPGTFAMWWLGCTGIWLKSEGGTNVCVDFWCGTGKQSHGNPLMKQGHQMQRMAGVKKLQPNLRTTPFVLDPFAIRQIDAVLATHDHNDHIDVNVAAAVMQNCADDVPFIGPKTCVDLWIGWGVPKERCIVVKPGDVVKVKDIEIHALDAFDRTALITLPADQKAAGVLPDGMDDRAVNYLFKTPGGSLYHSGDSHYSNYYAKHGNEHQIDVALGSYGENPRGITDKMTSADMLRMGEALNAKVVIPFHHDIWSNFQADPQEIRVLWEMKKDRLKYGFKPFIWQVGGKFTWPLDKDNFEYHYPRGFDDCFTIEPDLPFKSFL”, for which the “total protein half-life in vivo” value is, setting by setting: under setting [8], 5.04 ± 0.82 h; under setting [10], 3.56 h; under setting [5], 11.2 h; under setting [7], 3.67 ± 0.66 h; under setting [12], 9.39 h.
Take “MAMETQDIIKRSATNSITPPSQVRDYKAEVAKLIDVSTCIGCKACQVACSEWNDIRDEVGHCVGVYDNPADLSAKSWTVMRFSETEQNGKLEWLIRKDGCMHCEDPGCLKACPSAGAIIQYANGIVDFQSENCIGCGYCIAGCPFNIPRLNKEDNRVYKCTLCVDRVSVGQEPACVKTCPTGAIHFGTKKEMLELAEQRVAKLKARGYEHAGVYNPEGVGGTHVMYVLHHADQPELYHGLPKDPKIDTSVSLWKGALKPLAAAGFIATFAGLIFHYIGIGPNKEVDDDEEDHHE [P0AAJ3]”: the “total protein half-life in vivo” value reads like this: under setting [1], 4.35 h; under setting [2], > 8 h; under setting [6], 3.95 h; under setting [7], 6.22 h.
For “MFDNLTDRLSRTLRNISGRGRLTEDNVKDTLREVRMALLEADVALPVVREFINRVKEKAVGHEVNKSLTPGQEFVKIVRNELVAAMGEENQTLNLAAQPPAVVLMAGLQGAGKTTSVGKLGKFLREKHKKKVLVVSADVYRPAAIKQLETLAEQVGVDFFPSDVGQKPVDIVNAALKEAKLKFYDVLLVDTAGRLHVDEAMMDEIKQVHASINPVETLFVVDAMTGQDAANTAKAFNEALPLTGVVLTKVDGDARGGAALSIRHITGKPIKFLGVGEKTEALEPFHPDRIASRILGMGDVLSLIEDIESKVDRAQAEKLASKLKKGDGFDLNDFLEQLRQMKNMGGMASLMGKLPGMGQIPDNVKSQMDDKVLVRMEAIINSMTMKERAKPEIIKGSRKRRIAAGCGMQVQDVNRLLKQFDDMQRMMKKMKKGGMAKMMRSMKGMMPPGFPGR [P0AGD7]”, the “total protein half-life in vivo” value is, setting by setting: under setting [8], 5.51 ± 0.064 h; under setting [1], 5.31 ± 0.54 h; under setting [2], 4.4 ± 0.073 h; under setting [9], 5.49 ± 0.42 h; under setting [3], 4.58 ± 0.087 h; under setting [10], 2.85 ± 0.033 h. In addition, the “total protein half-life in vivo” value amounted to 4.898 ± 0.04 h under setting [4]; 8.739 ± 0.073 h under setting [5]; 4.28 ± 0.099 h under setting [6]; 7.9 ± 0.14 h under setting [11]; 4.6 ± 0.13 h under setting [7]; 9.883 ± 0.071 h under setting [12].
As to “MRVFKTKLIRLQLTAEELDALTADFISYKRDGVLPDIFGRDALYDDSFTWPLIKFERVAHIHLANENNPFPPQLRQFSRTNDEAHLVYCQGAFDEQAWLLIAILKPEPHKLARDNNQMHKIGKMAEAFRMRF”, the “total protein half-life in vivo” value by setting is: under setting [8], 7.33 h; under setting [7], > 8 h; under setting [12], 12.4 ± 1 h.
With “MAFVSEREIVRKIFSKKIDFTILAFFYISSIFFLLCSGVLFQYFTAAFTKGNCYECSMKLDYIKQFYFSLETAWYLISAVAVFIASVFIQHRIKAYLTLLAITWIVLTITDVALIHALDNIAMNNILLNILYNLFGAILLSLFMCLSNSLLFHLNKIKHIPMILSAMIPLVSAIIIAILITAVIYLLFARQAVEIEMDISEGSDIAYVGVKDNEESFGFLNDKKTDTPTYLDVIKNGSLIYNDTQGLSGADIYIVSGCYALPDLLRNVPLDAKKSFLNVKKLEITQKLPMMGFIQGESADVMPKAASRLSLSKQDDKFMLASSVTDSQIKFKSNNAQLMVAFAFMPITTNGILHDYTYDIIINDKKYKIENHVAPLSRLDKNKKMKCEYQQISDLTNTYNINANYLTGFLLVLKPDDIINYNNSPSVLLKTDFAFYKKTYQKLDKIYDDISNGKLSSLRATGISQFSINGKHLSLRPESEIIISEGSLYGLVNKSKKIKIYGTADLVFVDNKIMNLRKITYLQSKLEIFGSSIMDILKYIFGLGLLAISIKFIHSYFKNDVNENLFL”, the “total protein half-life in vivo” value by setting is: under setting [6], 2.06 h; under setting [12], 2.3 ± 0.71 h.
